We go through one molecule from patent publication US20220064329A1 (Novo Nordisk, published 2022).

Assay in all cases: SPR, ratio of KD to KD of WT
The target in one assay is T1, FVII(a) variant I186A (human, UniProt P08709 61-466).
T1 construct: hFVII alanine variant in cell culture supernatant
T1 sequence: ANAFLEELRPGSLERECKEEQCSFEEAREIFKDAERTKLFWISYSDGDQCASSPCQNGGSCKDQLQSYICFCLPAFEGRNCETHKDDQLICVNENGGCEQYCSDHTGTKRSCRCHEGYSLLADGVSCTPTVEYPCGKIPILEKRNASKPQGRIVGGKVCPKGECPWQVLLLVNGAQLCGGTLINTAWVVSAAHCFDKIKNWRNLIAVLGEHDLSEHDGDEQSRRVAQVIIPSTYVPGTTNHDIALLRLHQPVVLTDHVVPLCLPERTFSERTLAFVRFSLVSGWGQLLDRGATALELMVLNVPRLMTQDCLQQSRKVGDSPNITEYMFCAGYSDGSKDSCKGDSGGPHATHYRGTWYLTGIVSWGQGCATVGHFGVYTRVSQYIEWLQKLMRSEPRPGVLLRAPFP
The procedure:
(§1) The running buffer was prepared by diluting 10-fold the 10×HBS-P buffer (supplied by GE Healthcare) and supplemented with 1 mg/ml BSA and 5 mM CaCl2 to give 10 mM HEPES, 150 mM NaCl, 0.05% v/v Polysorbate 20, pH 7.4, 5 mM CaCl2, 1 mg/ml bovine serum albumin (BSA). […] Regeneration of the chip was achieved using 10 mM HEPES, 150 mM NaCl, 20 mM EDTA, 0.05 v/v Polysorbate 20, pH 7.4. Binding data were analysed according to a 1:1 Kinetic model and steady state analysis using BiaEvaluation 4.1 supplied by the manufacturer (Biacore AB, Uppsala, Sweden). Wherever possible, ka, kd and KD values from 1:1 kinetic fitting model are reported. […] An amino acid residue is considered a hot-spot residue if substitution of that amino acid residue with alanine results in an affinity reduction of ten (10) fold or more relative to the wild type.

For a further assay, the target named is T2, FVII(a) variant M391A (human, UniProt P08709 61-466).
T2 construct: hFVII alanine variant in cell culture supernatant
T2 sequence: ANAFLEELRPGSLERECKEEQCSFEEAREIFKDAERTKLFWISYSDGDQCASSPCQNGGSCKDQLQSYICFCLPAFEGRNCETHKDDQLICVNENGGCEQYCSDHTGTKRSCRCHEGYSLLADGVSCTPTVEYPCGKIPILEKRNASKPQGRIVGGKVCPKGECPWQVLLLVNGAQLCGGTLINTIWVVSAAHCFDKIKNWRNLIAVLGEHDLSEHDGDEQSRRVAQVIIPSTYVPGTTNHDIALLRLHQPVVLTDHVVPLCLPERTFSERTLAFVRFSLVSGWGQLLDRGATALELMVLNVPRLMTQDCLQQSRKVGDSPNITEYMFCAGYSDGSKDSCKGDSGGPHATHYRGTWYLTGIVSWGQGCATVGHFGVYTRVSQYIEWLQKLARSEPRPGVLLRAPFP
On the procedure:
as §1

The target of a further assay is T3, FVII(a) variant N184A (human, UniProt P08709 61-466).
T3 construct: hFVII alanine variant in cell culture supernatant
T3 sequence: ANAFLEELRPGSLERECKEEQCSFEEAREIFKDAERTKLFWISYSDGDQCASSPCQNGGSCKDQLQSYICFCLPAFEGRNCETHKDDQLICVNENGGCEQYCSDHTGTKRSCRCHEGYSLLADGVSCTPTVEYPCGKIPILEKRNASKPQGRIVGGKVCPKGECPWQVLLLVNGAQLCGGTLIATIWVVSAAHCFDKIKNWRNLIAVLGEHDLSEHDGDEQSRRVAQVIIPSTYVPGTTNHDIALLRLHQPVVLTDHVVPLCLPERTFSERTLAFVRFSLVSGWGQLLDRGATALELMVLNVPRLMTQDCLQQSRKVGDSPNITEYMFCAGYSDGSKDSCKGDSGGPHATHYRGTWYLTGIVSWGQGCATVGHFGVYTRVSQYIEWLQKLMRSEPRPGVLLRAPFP
The procedure:
as §1

The target in another assay is T4, FVII(a) variant S119A (human, UniProt P08709 61-466).
T4 construct: hFVII alanine variant in cell culture supernatant
T4 sequence: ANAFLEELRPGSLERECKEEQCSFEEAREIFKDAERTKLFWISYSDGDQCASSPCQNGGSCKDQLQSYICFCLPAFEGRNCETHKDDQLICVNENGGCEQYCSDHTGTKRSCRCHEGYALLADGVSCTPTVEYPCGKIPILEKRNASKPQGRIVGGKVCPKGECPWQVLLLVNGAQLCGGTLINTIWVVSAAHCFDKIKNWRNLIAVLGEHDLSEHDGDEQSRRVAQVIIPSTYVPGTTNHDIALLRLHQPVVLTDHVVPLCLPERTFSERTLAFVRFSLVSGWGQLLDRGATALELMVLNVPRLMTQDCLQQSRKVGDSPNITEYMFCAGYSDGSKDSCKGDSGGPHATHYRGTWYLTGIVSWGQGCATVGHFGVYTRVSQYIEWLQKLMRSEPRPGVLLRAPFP
On the procedure: as §1

The next assay addresses T5, FVII(a) variant L120A (human, UniProt P08709 61-466).
T5 construct: hFVII alanine variant in cell culture supernatant
T5 sequence: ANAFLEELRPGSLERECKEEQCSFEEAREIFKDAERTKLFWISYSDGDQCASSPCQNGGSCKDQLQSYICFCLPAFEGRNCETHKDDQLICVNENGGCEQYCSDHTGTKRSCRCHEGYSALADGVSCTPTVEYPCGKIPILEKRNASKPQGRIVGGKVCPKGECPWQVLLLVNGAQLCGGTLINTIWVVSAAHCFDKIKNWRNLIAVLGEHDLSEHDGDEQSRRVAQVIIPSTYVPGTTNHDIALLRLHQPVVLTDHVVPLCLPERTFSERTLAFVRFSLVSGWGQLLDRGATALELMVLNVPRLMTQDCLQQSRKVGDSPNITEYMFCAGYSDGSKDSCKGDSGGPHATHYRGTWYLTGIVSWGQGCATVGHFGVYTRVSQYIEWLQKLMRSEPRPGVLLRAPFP
On the procedure: as §1

B1: mAb0842(OA) (antibody, human IgG4 S228P, kappa)
heavy: QVQLQESGPGLVKPSQTLSLTCTVSGYSISSDSAWSWIRQPPGKGLEWIGYIQYSGSTNYNPSLKSRVTISRDTSKNQFSLKLSSVTAADTAVYYCARSVNYYGNSFAVGYWGQGTLVTVSSASTKGPSVFPLAPCSRSTSESTAALGCLVKDYFPEPVTVSWNSGALTSGVHTFPAVLQSSGLYSLSSVVTVPSSSLGTKTYTCNVDHKPSNTKVDKRVESKYGPPCPPCPAPEFLGGPSVFLFPPKPKDTLMISRTPEVTCVVVDVSQEDPEVQFNWYVDGVEVHNAKTKPREEQFNSTYRVVSVLTVLHQDWLNGKEYKCKVSNKGLPSSIEKTISKAKGQPREPQVYTLPPSQEEMTKNQVSLSCAVKGFYPSDIAVEWESNGQPENNYKTTPPVLDSDGSFFLVSRLTVDKSRWQEGNVFSCSVMHEALHNHYTQKSLSLSLGK
light: EIVLTQSPATLSLSPGERATLSCRASQGISDYLHWYQQKPGEAPRLLIKYTSQPATGIPARFSGSGSGTDFTLTISSLEPEDFAVYYCQNGHSFPLTFGQGTKLEIKRTVAAPSVFIFPPSDEQLKSGTASVVCLLNNFYPREAKVQWKVDNALQSGNSQESVTEQDSKDSTYSLSSTLTLSKADYEKHKVYACEVTHQGLSSPVTKSFNRGEC
chain: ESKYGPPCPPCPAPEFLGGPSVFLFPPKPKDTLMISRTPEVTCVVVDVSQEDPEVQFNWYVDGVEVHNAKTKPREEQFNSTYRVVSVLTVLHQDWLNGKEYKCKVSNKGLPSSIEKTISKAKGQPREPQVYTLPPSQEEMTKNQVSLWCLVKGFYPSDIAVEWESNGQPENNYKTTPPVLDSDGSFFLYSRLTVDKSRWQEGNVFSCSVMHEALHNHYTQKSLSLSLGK
notes: also called monovalent humanized 11F2 antibody; one-armed anti-FVII(a) antibody
As for B1, the “Fold diff (Variant/WT)” value with FVII(a) variant I186A turned out to be 1.3 fold; with FVII(a) variant M391A it was 0.8 fold; with FVII(a) variant N184A it was 6.3 fold; with FVII(a) variant S119A it was 1 fold; with FVII(a) variant L120A, 2 fold.
